Experimental findings from PMC2773741 are described below.

The target of assay [1] is neural retina leucine zipper (NRL), V5-tagged (UniProt P54845). Put plainly: co-immunoprecipitation, band densitometry normalized to input. The following applies: COS-1 cells cotransfected; IP goat anti-V5; detection mouse anti-Xpress; parent: est. 100; read off a plot.
Assay [2] concerns the target cone-rod homeobox (CRX), V5-tagged (UniProt O43186). The description is as above. The following applies: COS-1 cells cotransfected; detection mouse anti-Xpress; parent: est. 100; read off a plot.

neural retina leucine zipper (NRL), V5-tagged, sequence (P54845 whole entry): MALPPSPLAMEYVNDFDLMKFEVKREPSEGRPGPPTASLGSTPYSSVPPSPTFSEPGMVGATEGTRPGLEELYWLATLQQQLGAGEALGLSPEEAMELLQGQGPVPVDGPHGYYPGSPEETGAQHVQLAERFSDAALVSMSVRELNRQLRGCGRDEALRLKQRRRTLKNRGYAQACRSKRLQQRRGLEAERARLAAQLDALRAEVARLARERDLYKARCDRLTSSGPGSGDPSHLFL
cone-rod homeobox (CRX), V5-tagged, sequence (O43186 whole entry): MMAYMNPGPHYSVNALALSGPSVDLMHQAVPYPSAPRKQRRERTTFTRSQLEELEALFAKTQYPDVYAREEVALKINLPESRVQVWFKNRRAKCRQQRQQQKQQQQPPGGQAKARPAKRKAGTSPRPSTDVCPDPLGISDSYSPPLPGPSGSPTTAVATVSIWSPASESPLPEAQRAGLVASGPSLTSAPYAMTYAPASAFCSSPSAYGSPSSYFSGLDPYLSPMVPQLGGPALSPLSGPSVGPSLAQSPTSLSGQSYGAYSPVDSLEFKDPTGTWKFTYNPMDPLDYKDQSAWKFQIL
photoreceptor-specific nuclear receptor NR2E3 (nuclear receptor subfamily 2 group E member 3), wild type, Q9Y5X4-1 p.L336P, sequence (Q9Y5X4 whole entry L336P): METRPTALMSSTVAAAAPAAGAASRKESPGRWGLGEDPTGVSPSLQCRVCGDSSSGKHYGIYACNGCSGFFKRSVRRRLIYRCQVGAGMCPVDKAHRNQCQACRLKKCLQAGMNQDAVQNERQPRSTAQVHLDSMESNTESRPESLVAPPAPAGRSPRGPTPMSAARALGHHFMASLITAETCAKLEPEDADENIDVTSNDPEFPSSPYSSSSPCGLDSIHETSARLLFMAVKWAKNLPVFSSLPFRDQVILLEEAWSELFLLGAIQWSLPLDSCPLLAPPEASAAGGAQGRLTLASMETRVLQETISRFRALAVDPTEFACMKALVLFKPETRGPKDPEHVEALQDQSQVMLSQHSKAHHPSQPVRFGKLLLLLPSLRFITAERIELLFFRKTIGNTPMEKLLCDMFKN
photoreceptor-specific nuclear receptor NR2E3 (nuclear receptor subfamily 2 group E member 3), wild type, Q9Y5X4-1 p.R385P, sequence (Q9Y5X4 whole entry R385P): as the sequence (Q9Y5X4 whole entry L336P) above, with P336L, R385P counted along it
photoreceptor-specific nuclear receptor NR2E3 (nuclear receptor subfamily 2 group E member 3), wild type, Q9Y5X4-1 p.L353V, sequence (Q9Y5X4 whole entry L353V): as the sequence (Q9Y5X4 whole entry L336P) above, with P336L, L353V counted along it
photoreceptor-specific nuclear receptor NR2E3 (nuclear receptor subfamily 2 group E member 3), wild type, Q9Y5X4-1 p.R104Q, sequence (Q9Y5X4 whole entry R104Q): as the sequence (Q9Y5X4 whole entry L336P) above, with R104Q, P336L counted along it
photoreceptor-specific nuclear receptor NR2E3 (nuclear receptor subfamily 2 group E member 3), wild type, Q9Y5X4-1 p.W234S, sequence (Q9Y5X4 whole entry W234S): as the sequence (Q9Y5X4 whole entry L336P) above, with W234S, P336L counted along it
photoreceptor-specific nuclear receptor NR2E3 (nuclear receptor subfamily 2 group E member 3), wild type, Q9Y5X4-1 p.R334G, sequence (Q9Y5X4 whole entry R334G): as the sequence (Q9Y5X4 whole entry L336P) above, with R334G, P336L counted along it
photoreceptor-specific nuclear receptor NR2E3 (nuclear receptor subfamily 2 group E member 3), wild type, Q9Y5X4-1 p.A256E, sequence (Q9Y5X4 whole entry A256E): as the sequence (Q9Y5X4 whole entry L336P) above, with A256E, P336L counted along it
photoreceptor-specific nuclear receptor NR2E3 (nuclear receptor subfamily 2 group E member 3), wild type, Q9Y5X4-1 p.R97H, sequence (Q9Y5X4 whole entry R97H): as the sequence (Q9Y5X4 whole entry L336P) above, with R97H, P336L counted along it
photoreceptor-specific nuclear receptor NR2E3 (nuclear receptor subfamily 2 group E member 3), wild type, Q9Y5X4-1 p.G88V, sequence (Q9Y5X4 whole entry G88V): as the sequence (Q9Y5X4 whole entry L336P) above, with G88V, P336L counted along it
photoreceptor-specific nuclear receptor NR2E3 (nuclear receptor subfamily 2 group E member 3), wild type, Q9Y5X4-1 p.R309G, sequence (Q9Y5X4 whole entry R309G): as the sequence (Q9Y5X4 whole entry L336P) above, with R309G, P336L counted along it

Turning to “photoreceptor-specific nuclear receptor NR2E3 (nuclear receptor subfamily 2 group E member 3), wild type, Q9Y5X4-1 p.A256E”, the results for the percent of parent in assay [1] and in assay [2] were 62% and 55%, respectively.

“photoreceptor-specific nuclear receptor NR2E3 (nuclear receptor subfamily 2 group E member 3), wild type, Q9Y5X4-1 p.E121K”: the percent of parent in assay [1] worked out at 120%; in assay [2], 87%.

On to “photoreceptor-specific nuclear receptor NR2E3 (nuclear receptor subfamily 2 group E member 3), wild type, Q9Y5X4-1 p.G56R”, for which the percent of parent in assay [1] is 110%; in assay [2] it was 48%.

With “photoreceptor-specific nuclear receptor NR2E3 (nuclear receptor subfamily 2 group E member 3), wild type, Q9Y5X4-1 p.G88V”, the figures for the percent of parent in assay [1] and in assay [2] were 110% and 99%, respectively.

Consider “photoreceptor-specific nuclear receptor NR2E3 (nuclear receptor subfamily 2 group E member 3), wild type, Q9Y5X4-1 p.L263P”, for which the percent of parent in assay [1] was 16%; in assay [2], 24%.

On to “photoreceptor-specific nuclear receptor NR2E3 (nuclear receptor subfamily 2 group E member 3), wild type, Q9Y5X4-1 p.L336P”, for which the percent of parent in assay [1] was found to be 10%; in assay [2] it was 32%.

As for “photoreceptor-specific nuclear receptor NR2E3 (nuclear receptor subfamily 2 group E member 3), wild type, Q9Y5X4-1 p.L353V”, the percent of parent in assay [1] amounted to 10%; in assay [2], 30%.

Take “photoreceptor-specific nuclear receptor NR2E3 (nuclear receptor subfamily 2 group E member 3), wild type, Q9Y5X4-1 p.M407K”: the percent of parent in assay [1] was found to be 61%; in assay [2], 76%.

For “photoreceptor-specific nuclear receptor NR2E3 (nuclear receptor subfamily 2 group E member 3), wild type, Q9Y5X4-1 p.N65_C67del”, the results for the percent of parent in assay [1] and in assay [2] were 100% and 84%, respectively.

Turning to “photoreceptor-specific nuclear receptor NR2E3 (nuclear receptor subfamily 2 group E member 3), wild type, Q9Y5X4-1 p.R76Q”, the percent of parent is 110% in assay [1] and 95% in assay [2].

Turning to “photoreceptor-specific nuclear receptor NR2E3 (nuclear receptor subfamily 2 group E member 3), wild type, Q9Y5X4-1 p.R76W”, the percent of parent in assay [1] is 98%; in assay [2], 88%.

Consider “photoreceptor-specific nuclear receptor NR2E3 (nuclear receptor subfamily 2 group E member 3), wild type, Q9Y5X4-1 p.R97H”, for which the percent of parent in assay [1] was determined as 110%; in assay [2], 43%.

For the substance “photoreceptor-specific nuclear receptor NR2E3 (nuclear receptor subfamily 2 group E member 3), wild type, Q9Y5X4-1 p.R104Q”, the percent of parent in assay [1] came out at 100%; in assay [2] it was 42%.

Take “photoreceptor-specific nuclear receptor NR2E3 (nuclear receptor subfamily 2 group E member 3), wild type, Q9Y5X4-1 p.R309G”: the percent of parent in assay [1] amounted to 37%; in assay [2], 55%.

As to “photoreceptor-specific nuclear receptor NR2E3 (nuclear receptor subfamily 2 group E member 3), wild type, Q9Y5X4-1 p.R311Q”, the percent of parent in assay [1] was 74%; in assay [2], 44%.

“photoreceptor-specific nuclear receptor NR2E3 (nuclear receptor subfamily 2 group E member 3), wild type, Q9Y5X4-1 p.R334G”: the percent of parent came out at 69% in assay [1] and 81% in assay [2].

On to “photoreceptor-specific nuclear receptor NR2E3 (nuclear receptor subfamily 2 group E member 3), wild type, Q9Y5X4-1 p.R385P”, for which the percent of parent came out at 37% in assay [1] and 60% in assay [2].

Regarding “photoreceptor-specific nuclear receptor NR2E3 (nuclear receptor subfamily 2 group E member 3), wild type, Q9Y5X4-1 p.V232I”, the percent of parent in assay [1] and in assay [2] was 87% in each case.

With “photoreceptor-specific nuclear receptor NR2E3 (nuclear receptor subfamily 2 group E member 3), wild type, Q9Y5X4-1 p.V302I”, the percent of parent in assay [1] came to 56%; in assay [2] it was 86%.

“photoreceptor-specific nuclear receptor NR2E3 (nuclear receptor subfamily 2 group E member 3), wild type, Q9Y5X4-1 p.W234S”: the percent of parent in assay [1] amounted to 58%; in assay [2], 95%.
